Measurements: patent publication US20200392228A1 (PANDION OPERATIONS, published 2020)
Positions count from the first letter of the chain named.

T1: human MAdCAM expressed on cells (human, UniProt Q13477 19-382)
T1 construct: whole, on cells; also called MADCAM1
T1 sequence (looked up): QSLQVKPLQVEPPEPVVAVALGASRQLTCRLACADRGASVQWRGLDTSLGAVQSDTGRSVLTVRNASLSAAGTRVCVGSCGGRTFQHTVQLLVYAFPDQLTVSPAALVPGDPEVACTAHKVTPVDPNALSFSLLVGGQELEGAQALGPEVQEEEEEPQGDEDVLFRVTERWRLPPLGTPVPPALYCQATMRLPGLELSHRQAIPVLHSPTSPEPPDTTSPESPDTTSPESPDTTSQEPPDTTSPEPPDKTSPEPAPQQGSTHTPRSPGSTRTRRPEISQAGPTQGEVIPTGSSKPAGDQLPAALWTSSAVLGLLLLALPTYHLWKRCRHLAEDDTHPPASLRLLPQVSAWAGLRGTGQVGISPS

T2: mouse MAdCAM expressed on cells (mouse, UniProt Q61826 22-405)
T2 construct: whole, on cells
T2 sequence (looked up): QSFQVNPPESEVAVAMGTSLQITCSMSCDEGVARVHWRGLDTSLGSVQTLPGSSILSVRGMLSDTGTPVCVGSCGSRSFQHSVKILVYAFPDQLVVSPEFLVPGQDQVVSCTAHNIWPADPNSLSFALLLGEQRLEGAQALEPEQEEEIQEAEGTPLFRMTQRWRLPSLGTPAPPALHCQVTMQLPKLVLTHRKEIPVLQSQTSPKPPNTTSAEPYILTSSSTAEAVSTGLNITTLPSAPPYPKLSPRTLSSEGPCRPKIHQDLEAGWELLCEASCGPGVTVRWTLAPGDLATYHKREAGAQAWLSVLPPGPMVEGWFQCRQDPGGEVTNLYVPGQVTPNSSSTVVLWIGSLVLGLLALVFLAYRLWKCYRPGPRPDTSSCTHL

T3: human MAdCAM protein (human, UniProt Q13477 19-317)
T3 construct: used for Octet, SPR, ELISA and plate capture; construct not described; also called recombinant human MAdCAM; soluble monomeric human MAdCAM
T3 sequence (looked up): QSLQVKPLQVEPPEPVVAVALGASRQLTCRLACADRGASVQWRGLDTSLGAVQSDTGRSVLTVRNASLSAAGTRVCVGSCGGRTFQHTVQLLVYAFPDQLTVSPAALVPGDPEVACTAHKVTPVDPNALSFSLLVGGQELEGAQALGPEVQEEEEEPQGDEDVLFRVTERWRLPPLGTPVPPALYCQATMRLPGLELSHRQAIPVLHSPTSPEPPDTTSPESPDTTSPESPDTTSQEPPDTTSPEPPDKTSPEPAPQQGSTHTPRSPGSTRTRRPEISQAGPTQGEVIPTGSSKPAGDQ

B1: MAdCAM antibody Clone ID 44 of Table 7 (IgG) (antibody, V domains shown)
VH: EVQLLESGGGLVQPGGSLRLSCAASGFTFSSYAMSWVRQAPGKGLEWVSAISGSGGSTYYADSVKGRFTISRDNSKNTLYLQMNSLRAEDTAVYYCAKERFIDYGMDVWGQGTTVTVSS
VL: DIQMTQSPSSLSASVGDRVTITCQASQDISNYLNWYQQKPGKAPKLLIYAASSLQSGVPSRFSGSGSGTDFTLTISSLQPEDFATYYCQQTYSGWTFGPGTKVDIK
notes: IgG format
B2: MAdCAM antibody Clone ID 19 of Table 7 (IgG) (antibody, V domains shown)
VH: EVQLLESGGGLVQPGGSLRLSCAASGFTFEDYAMHWVRQAPGKGLEWVSYLNSDGGSTSYADSVKGRFTISRDNSKNTLYLQMNSLRAEDTAVYYCAKDYCTNGVCAFDYWGQGTLVTVSS
VL: DIQMTQSPSSLSASVGDRVTITCRASQSISTYLNWYQQKPGKAPKLLIYDASNLETGVPSRFSGSGSGTDFTLTISSLQPEDFATYYCQQSYTIPITFGQGTRLEIK
notes: IgG format
B3: MAdCAM antibody Clone ID 37 of Table 7 (IgG) (antibody, V domains shown)
VH: EVQLLESGGGLVQPGGSLRLSCAASGFTFSDYGMPWVRQAPGKGLEWVSAISGSGGSTYYADSVKGRFTISRDNSKNTLYLQMNSLRAEDTAVYYCARDGGWQPAAILDYWGQGTLVTVSS
VL: B2 VL with S28G, T31N, Y32N, T93S, I94T, I96L, R103K, L104V
notes: IgG format
B4: MAdCAM antibody Clone ID 34 of Table 7 (IgG) (antibody, V domains shown)
VH: QVQLVQSGAEVKKPGASVKVSCKASGYTFTGYYIHWVRQAPGQGLEWMGWMNPNSGNTGYAQKFQGRVTMTRDTSTSTVYMELSSLRSEDTAVYYCARDPGFLGYCSGGSCYDGWFDPWGQGTLVTVSS
VL: B2 VL with T31S, N34H, D50A, N53S, E55Q, T56S, I94A, I96Y, R103K
notes: IgG format
B5: MAdCAM antibody Clone ID 41 of Table 7 (IgG) (antibody, V domains shown)
VH: QVQLVQSGAEVKKPGASVKVSCKASGYTFTSYYMHWVRQAPGQGLEWMGIINPSGGSTSYAQKFQGRVTMTRDTSTSTVYMELSSLRSEDTAVYYCARDTGYSYGRYYYYGMDVWGQGTLVTVSS
VL: B2 VL with S30G, T31R, Y32W, N34A, E55Q, T56S, T93S, R103K, L104V
notes: IgG format
B6: MAdCAM antibody Clone ID 59 of Table 7 (IgG) (antibody, V domains shown)
VH: B3 VH with T28S, P35H
VL: B2 VL with S28G, T31N, Y32N, T93S, I94T, I96L, Q100G, R103K, L104V
notes: IgG format
B7: MAdCAM antibody Clone ID 38 of Table 7 (IgG) (antibody, V domains shown)
VH: QVQLVQSGAEVKKPGASVKVSCKASGYTFTDYFLHWVRQAPGQGLEWMGWMNPTSGNTGYAQKFQGRVTMTRDTSTSTVYMELSSLRSEDTAVYYCAREGEGSGFDYWGQGTLVTVSS
VL: DIQMTQSPSSLSASVGDRVTITCRASQGINSWLAWYQQKPGKAPKLLIYDASNLETGVPSRFSGSGSGTDFTLTISSLQPEDFATYYCQQSYSTPLTFGGGTKVEIK
notes: IgG format
B8: MAdCAM antibody Clone ID 52 of Table 7 (IgG) (antibody, V domains shown)
VH: EVQLLESGGGLVQPGGSLRLSCAASGFTFDDYGMSWVRQAPGKGLEWVSYISSSSSYIYYADSVKGRFTISRDNSKNTLYLQMNSLRAEDTAVYYCAREIAAAGFYGMDVWGQGTTVTVSS
VL: not shown
notes: IgG format
B9: MAdCAM antibody Clone ID 18 of Table 7 (IgG) (antibody, V domains shown)
VH: QVQLVQSGAEVKKPGSSVKVSCKASGYTFTNYYMHWVRQAPGQGLEWMGGIIPIVDRVKYAQKFQGRVTITADESTSTAYMELSSLRSEDTAVYYCAKGRYTVNYYYGMDVWGQGTTVTVSS
VL: DIQMTQSPSSLSASVGDRVTITCQANQDISNYLNWYQQKPGKAPKLLIYRASKLEAGVPSRFSGSGSGTDFTLTISSLQPEDFATYYCQQSSEIPYSFGQGTKLEIK
notes: IgG format
B10: MAdCAM antibody Clone ID 21 of Table 7 (IgG) (antibody, V domains shown)
VH: EVQLVESGGGLVKPGGSLRLSCAASGFTFSSYWMSWVRQAPGKGLEWVSYISGDSGYTNYAAPVKGRFTISRDDSKNTLYLQMNSLKTEDTAVYYCARANSSGWYDWYFDLWGRGTLVTVSS
VL: not shown
notes: IgG format
B11: MAdCAM antibody Clone ID 25 of Table 7 (IgG) (antibody, V domains shown)
VH: EVQLLESGGGLVQPGGSLRLSCAASGFTFSNAWMSWVRQAPGKGLEWVSTIVGNGGATYYADSVKGRFTISRDNSKNTLYLQMNSLRAEDTAVYYCARDNPLRWQGMDVWGQGTLVTVSS
VL: DIQMTQSPSSLSASVGDRVTITCRASQDISNYLNWYQQKPGKAPKLLIYAASSLQSGVPSRFSGSGSGTDFTLTISSLQPEDFATYYCQQSYSIPPTFGPGTKVDIK
notes: IgG format
B12: MAdCAM antibody Clone ID 43 of Table 7 (IgG) (antibody, V domains shown)
VH: QVQLVQSGAEVKKPGASVKVSCKASGYTFTSYGISWVRQAPGQGLEWMGWMHPKSGDTGLTQKFQGRVTMTRDTSTSTVYMELSSLRSEDTAVYYCARDTPYYYYGMDVWGQGTTVTVSS
VL: B11 VL with D28S, N31S, Y32W, N34A, I94V, P96I, P100Q, D105E
notes: IgG format
B13: MAdCAM antibody Clone ID 42 of Table 7 (IgG) (antibody, V domains shown)
VH: QVQLVQSGAEVKKPGASVKVSCKASGYTLTDYYMHWVRQAPGQGLEWMGIINPSGGSTSYAQKFQGRVTMTRDTSTSTVYMELSSLRSEDTAVYYCAREEYSSSSGYFDYWGQGTLVTVSS
VL: B7 VL with N30S, D50A, N53S, E55Q, T56S, G100Q
notes: IgG format
B14: MAdCAM antibody Clone ID 39 of Table 7 (IgG) (antibody, V domains shown)
VH: QVQLVQSGAEVKKPGASVKVSCKASGYTFTSYYMHWVRQAPGQGLEWMAWMNPNSGNTGYAQKFQGRVTMTRDTSTSTVYMELSSLRSEDTAVYYCARDYDFWSGSLGYWGQGTLVTVSS
VL: B11 VL with D28G, N34A, I94T, P96W, P100Q, D105E
notes: IgG format
B15: MAdCAM antibody Clone ID 57 of Table 7 (IgG) (antibody, V domains shown)
VH: EVQLLESGGGLVQPGGSLRLSCAASGFSVSSNYMSWVRQAPGKGLEWVAGISYDGSSKPYADSVKGRFTISRDNSKNTLYLQMNSLRAEDTAVYYCARSRGIAARPLQHWGQGTLVTVSS
VL: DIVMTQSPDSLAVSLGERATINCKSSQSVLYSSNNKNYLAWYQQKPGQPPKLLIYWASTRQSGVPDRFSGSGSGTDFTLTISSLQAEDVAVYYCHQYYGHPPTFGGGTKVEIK
notes: IgG format
B16: MAdCAM antibody Clone ID 61 of Table 6 (scFv) (scFv)
scFv: EVQLLESGGGLVQPGGSLRLSCAASEFTFSNAWMSWVRQAPGKGLEWVASISSTSAYIDYADSVKGRFTISRDNSKNTLYLQMNSLRAEDTAVYYCAREVVGATTFDYWGQGTLVTVSSGGGGSGGGGSGGGGSGGGGSDIQMTQSPSSLSASVGDRVTITCRASQSISTWLAWYQQKPGKAPKLLIYAASSLQSGVPSRFSGSGSGTDFTLTISSLQPEDFATYYCQQANAFPPTFGQGTRLEIK
B17: MAdCAM antibody Clone ID 60 of Table 6 (scFv) (scFv)
scFv: EVQLLESGGGLVQPGGSLRLSCAASGFTFDDYTMHWVRQAPGKGLEWVSDISGSGGSTYYADSVKGRFTISRDNSKNTLYLQMNSLRAEDTAVYYCAKDVVVAGTPLHFDYWGQGTLVTVSSGGGGSGGGGSGGGGSGGGGSDIQMTQSPSSLSASVGDRVTITCQASQDISNYLNWYQQKPGKAPKLLIYAASYLQSGVPSRFSGSGSGTDFTLTISSLQPEDFATYYCQQAHNYPITFGQGTRLEIK
B18: MAdCAM antibody Clone ID 64 of Table 6 (scFv) (scFv)
scFv: EVQLLESGGGLVKPGGSLRLSCAASGFAFSSHWMHWVRQAPGKGLEWVAGTSGSGESRDYADFVKGRFTISRDDSKNTLYLQMNSLKTEDTAVYYCARETYYYYYMDVWGKGTTVTVSSGGGGSGGGGSGGGGSGGGGSDIQMTQSPSSLSASVGDRVTITCRASQGISNYLAWYQQKPGKAPKLLIYDAANLEGGVPSRFSGSGSGTDFTLTISSLQPEDFATYYCQQSDIFPPTFGQGTKVEIK
B19: MAdCAM antibody Clone ID 1 of Table 6 (scFv) (scFv)
scFv: EVQLLESGGGLVQPGGSLRLSCAASGFTFSSYGMHWVRQAPGKGLEWVAVISDDGSDKYYADSVKGRFTISRDNSKNTLYLQMNSLRAEDTAVYYCTTSKYYYYYGMDVWGQGTTVTVSSGGGGSGGGGSGGGGSGGGGSDIQMTQSPSSLSASVGDRVTITCQASQDISKSLNWYQQKPGKAPKLLIYAASSLQSGVPSRFSGSGSGTDFTLTISSLQPEDFATYYCQQGYSTPLTFGGGTKVEIK

The binders below were run against T1, human MAdCAM expressed on cells (assay: cell binding).

Binder	binding result
B1	binds
B2	binds
B3	binds
B4	binds
B5	binds
B6	binds
B7	binds
B8	binds
B9	binds
B10	binds
B11	binds
B12	binds
B13	binds
B14	binds
B15	binds

What follows are binders tested against T2, mouse MAdCAM expressed on cells (assay: cell binding).

Binder	binding result
B1	no binding
B2	no binding
B3	no binding
B4	no binding
B5	no binding
B6	no binding
B7	no binding
B8	no binding
B9	no binding
B10	no binding
B11	no binding
B12	no binding
B13	no binding
B14	no binding
B15	no binding

What follows are binders tested against T3, human MAdCAM protein (assay: Octet).

Binder	binding result
B16	binds
B17	binds
B18	binds
B19	binds

Target: T1, human MAdCAM expressed on cells
Test: cell binding
Remark: another data set of the same source

Binder	binding result
B16	binds
B17	binds
B18	binds
B19	binds

Target: T2, mouse MAdCAM expressed on cells
Test: cell binding
Remark: another data set of the same source

Binder	binding result
B16	binds
B17	binds
B18	binds
